Measured values: patent publication US10239925B2, “Peptides and combination of peptides for use in immunotherapy against ovarian cancer and other cancers” (IMMATICS BIOTECHNOLOGIES GMBH, priority 2015, dated 2019)
Blank lines part the entries; values can stand above or below the substance they belong to.

Tests used:
HLA-A*02:01 = HLA-A*02:01 (Homo sapiens, UniProt P04439, D140Y/D185E/D98H/E176V/E277Q/G131W/G231S/I119V/I121R/I166T/I218V/L300P/L318F/N151K/N90K/P208A/P217A/Q86G/Q94H/R138H/R169H/T345S); experiment: MHC binding assay (UV-ligand exchange, anti-β2m ELISA, peptide exchange yield); conditions: binding to HLA-A*02:01
Summary of the method: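 Peptide-MHC complexes formed by UV-ligand exchange, cleaving a UV-sensitive placeholder peptide in favour of the test peptide. Exchange yield measured by ELISA: monomers diluted 100-fold onto streptavidin-coated plates, 1 h 37 °C, detected with 2 ug/ml HRP anti-β2m and TMB, absorbance at 450 nm.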

CD8+ T cells = experiment: In vitro immunogenicity: priming of CD8+ T cells with aAPCs loaded with peptide/MHC and anti-CD28, multimer readout; assay type: cell-based, human; conditions: for Wells positive [%]: HLA-A*02 restricted peptides, percentage of positive wells (among evaluable); for donors: percentage of positive donors; for wells: percentage of positive wells
Experimental: In an aspect, the peptides are pre-screened for immunogenicity before being included in the warehouse. By way of example, and not limitation, the immunogenicity of the peptides included in the warehouse is determined by a method comprising in vitro T-cell priming through repeated stimulations of CD8+ T cells from healthy donors with artificial antigen presenting cells loaded with peptide/MHC complexes and anti-CD28 antibody.
FIGS. 3A to 3F show exemplary immunogenicity data: flow cytometry results after peptide-specific multimer staining. CD8+ T cells were primed using artificial APCs coated with anti-CD28 mAb and HLA-A*02 in complex with SeqID No 662 (FIG. 3A, left panel), SeqID No 663 (FIG. 3B, left panel), SeqID No 11 peptide (FIG. 3C, left panel), SeqID No 198 peptide (FIG. 3D, left panel), SeqID No 587 peptide (FIG. 3E, left panel) and SeqID No 427 peptide (FIG. 3F, left panel), respectively. After three cycles of stimulation, the detection of peptide-reactive cells was performed by 2D multimer staining with A*02/SeqID No 662 (FIG. 3A), A*02/SeqID No 663 (FIG. 3B), A*02/SeqID No 11 (FIG. 3C), A*02/SeqID No 198 (FIG. 3D), A*02/SeqID No 587 (FIG. 3E) or A*02/SeqID No 427 (FIG. 3F). Right panels (FIGS. 3A, 3B, 3C, 3D, 3E, and 3F) show control staining of cells stimulated with irrelevant A*02/peptide complexes. Viable singlet cells were gated for CD8+ lymphocytes. Boolean gates helped excluding false-positive events detected with multimers specific for different peptides. Frequencies of specific multimer+ cells among CD8+ lymphocytes are indicated.
In Vitro Immunogenicity for MHC Class I Presented Peptides
In order to obtain information regarding the immunogenicity of the TUMAPs of the present invention, the inventors performed investigations using an in vitro T-cell priming assay based on repeated stimulations of CD8+ T cells with artificial antigen presenting cells (aAPCs) loaded with peptide/MHC complexes and anti-CD28 antibody.
In Vitro Priming of CD8+ T Cells
In order to perform in vitro stimulations by artificial antigen presenting cells loaded with peptide-MHC complex (pMHC) and anti-CD28 antibody, the inventors first isolated CD8+ T cells from fresh HLA-A*02 leukapheresis products via positive selection using CD8 microbeads (Miltenyi Biotec, Bergisch-Gladbach, Germany) of healthy donors obtained from the University clinics Mannheim, Germany, after informed consent.
PBMCs and isolated CD8+ lymphocytes were incubated in T-cell medium (TCM) until use consisting of RPMI-Glutamax (Invitrogen, Karlsruhe, Germany) supplemented with 10% heat inactivated human AB serum (PAN-Biotech, Aidenbach, Germany), 100 U/ml Penicillin/100 μg/ml Streptomycin (Cambrex, Cologne, Germany), 1 mM sodium pyruvate (CC Pro, Oberdorla, Germany), 20 μg/ml Gentamycin (Cambrex). 2.5 ng/ml IL-7 (PromoCell, Heidelberg, Germany) and 10 U/ml IL-2 (Novartis Pharma, Nümberg, Germany) were also added to the TCM at this step.
Generation of pMHC/anti-CD28 coated beads, T-cell stimulations and readout was performed in a highly defined in vitro system using four different pMHC molecules per stimulation condition and 8 different pMHC molecules per readout condition.
The purified co-stimulatory mouse IgG2a anti human CD28 Ab 9.3 (Jung et al., 1987) was chemically biotinylated using Sulfo-N-hydroxysuccinimidobiotin as recommended by the manufacturer (Perbio, Bonn, Germany). Beads used were 5.6 μm diameter streptavidin coated polystyrene particles (Bangs Laboratories, Illinois, USA).
pMHC used for positive and negative control stimulations were A*0201/MLA-001 (peptide […] (SEQ ID NO. 664) from modified Melan-A/MART-1) and A*0201/DDX5-001 ([…] from DDX5, SEQ ID NO. 665), respectively.
800.000 beads/200 μl were coated in 96-well plates in the presence of 4×12.5 ng different biotin-pMHC, washed and 600 ng biotin anti-CD28 were added subsequently in a volume of 200 μl. […]

Substance: 17 (GLLPGDRLVSV; listed as Homo sapiens) [compound 17]
Peptide exchange (MHC class I binding score, peptide exchange yield) (HLA-A*02:01): “+++” (>50 = +++) | Wells positive [%] (CD8+ T cells): “++” (20% - 49% = ++)

Substance: 652 (TLWYRAPEV; listed as Homo sapiens) [compound 652]
donors (CD8+ T cells): ++++ (≥70% = ++++) | wells (CD8+ T cells): +++ (50% - 69% = +++)

Substance: 79 (SLFIGEKAVLL; listed as Homo sapiens) [compound 79]
Peptide exchange (MHC class I binding score, peptide exchange yield) (HLA-A*02:01): “+++” (>50 = +++) | Wells positive [%] (CD8+ T cells): “+” (<20% = +)

Substance: 663 (KIQEMQHFL; listed as Homo sapiens) [compound 663]
donors (CD8+ T cells): +++ (50% - 69% = +++) | wells (CD8+ T cells): + (<20% = +)

Substance: 7 (SLVGLLLYL; listed as Homo sapiens) [compound 7]
Peptide exchange (MHC class I binding score, peptide exchange yield) (HLA-A*02:01): “++++” (>75% = ++++) | Wells positive [%] (CD8+ T cells): “++” (20% - 49% = ++)

Substance: 60 (SLTIDGIYYV; listed as Homo sapiens) [compound 60]
Peptide exchange (MHC class I binding score, peptide exchange yield) (HLA-A*02:01): “++++” (>75% = ++++) | Wells positive [%] (CD8+ T cells): “++++” (≥70% = ++++)

Substance: 49 (YLPAVFEEV; listed as Homo sapiens) [compound 49]
Peptide exchange (MHC class I binding score, peptide exchange yield) (HLA-A*02:01): “+++” (>50 = +++) | Wells positive [%] (CD8+ T cells): “++” (20% - 49% = ++)

Substance: 19 (FMVDNEAIYDI; listed as Homo sapiens) [compound 19]
Peptide exchange (MHC class I binding score, peptide exchange yield) (HLA-A*02:01): “++++” (>75% = ++++) | Wells positive [%] (CD8+ T cells): “++” (20% - 49% = ++)

Substance: 2 (SLLEADPFL; listed as Homo sapiens) [compound 2]
Peptide exchange (MHC class I binding score, peptide exchange yield) (HLA-A*02:01): “+++” (>50 = +++) | Wells positive [%] (CD8+ T cells): “+” (<20% = +)

Substance: 648 (LLWGNAIFL; listed as Homo sapiens) [compound 648]
donors (CD8+ T cells): +++ (50% - 69% = +++) | wells (CD8+ T cells): ++ (20% - 49% = ++)

Substance: 662 (KIQEILTQV; listed as Homo sapiens) [compound 662]
donors (CD8+ T cells): +++ (50% - 69% = +++) | wells (CD8+ T cells): + (<20% = +)

Substance: 659 (ILFPDIIARA; listed as Homo sapiens) [compound 659]
donors (CD8+ T cells): +++ (50% - 69% = +++) | wells (CD8+ T cells): + (<20% = +)

Substance: 71 (GILARIASV; listed as Homo sapiens) [compound 71]
Peptide exchange (MHC class I binding score, peptide exchange yield) (HLA-A*02:01): “+++” (>50 = +++)

Substance: 72 (SLLELDGINL; listed as Homo sapiens) [compound 72]
Peptide exchange (MHC class I binding score, peptide exchange yield) (HLA-A*02:01): “+++” (>50 = +++)

Substance: 21 (VLDELDMEL; listed as Homo sapiens) [compound 21]
Peptide exchange (MHC class I binding score, peptide exchange yield) (HLA-A*02:01): “++” (>20% = ++)

Further lines, with some results ahead:

Peptide exchange (MHC class I binding score, peptide exchange yield) (HLA-A*02:01): “++++” (>75% = ++++)
Substance: 108 (ALFPGVALLLA; listed as Homo sapiens) [compound 108]
Wells positive [%] (CD8+ T cells): “++” (20% - 49% = ++)

Peptide exchange (MHC class I binding score, peptide exchange yield) (HLA-A*02:01): “+++” (>50 = +++)
Substance: 118 (KLIDNNINV; listed as Homo sapiens) [compound 118]
Wells positive [%] (CD8+ T cells): “+” (<20% = +)

Peptide exchange (MHC class I binding score, peptide exchange yield) (HLA-A*02:01): “++” (>20% = ++)
Substance: 242 (AIAYILQGV; listed as Homo sapiens) [compound 242]
Wells positive [%] (CD8+ T cells): “+++” (50% - 69% = +++)

Peptide exchange (MHC class I binding score, peptide exchange yield) (HLA-A*02:01): “+++” (>50 = +++)
Substance: 150 (RLWEEGEELEL; listed as Homo sapiens) [compound 150]
Wells positive [%] (CD8+ T cells): “+” (<20% = +)

Peptide exchange (MHC class I binding score, peptide exchange yield) (HLA-A*02:01): “++++” (>75% = ++++)
Substance: 460 (AMLEKNYKL; listed as Homo sapiens) [compound 460]
Wells positive [%] (CD8+ T cells): “+” (<20% = +)

Peptide exchange (MHC class I binding score, peptide exchange yield) (HLA-A*02:01): “+++” (>50 = +++)
Substance: 443 (GLWEIENNPTV; listed as Homo sapiens) [compound 443]
Wells positive [%] (CD8+ T cells): “+” (<20% = +)

Peptide exchange (MHC class I binding score, peptide exchange yield) (HLA-A*02:01): “+++” (>50 = +++)
Substance: 454 (KLPPPPPQA; listed as Homo sapiens) [compound 454]
Wells positive [%] (CD8+ T cells): “++” (20% - 49% = ++)

Peptide exchange (MHC class I binding score, peptide exchange yield) (HLA-A*02:01): “+++” (>50 = +++)
Substance: 463 (SLVESHLSDQLTL; listed as Homo sapiens) [compound 463]
Wells positive [%] (CD8+ T cells): “++” (20% - 49% = ++)

Peptide exchange (MHC class I binding score, peptide exchange yield) (HLA-A*02:01): “++” (>20% = ++)
Substance: 402 (VLFSGALLGL; listed as Homo sapiens) [compound 402]

Peptide exchange (MHC class I binding score, peptide exchange yield) (HLA-A*02:01): “+++” (>50 = +++)
Substance: 452 (ILLEHGADPNL; listed as Homo sapiens) [compound 452]

Peptide exchange (MHC class I binding score, peptide exchange yield) (HLA-A*02:01): “+++” (>50 = +++)
Substance: 594 (IMLKGDNITL; listed as Homo sapiens) [compound 594]

Peptide exchange (MHC class I binding score, peptide exchange yield) (HLA-A*02:01): “++++” (>75% = ++++)
Substance: 621 (VLMDRLPSLL; listed as Homo sapiens) [compound 621]

Peptide exchange (MHC class I binding score, peptide exchange yield) (HLA-A*02:01): “+++” (>50 = +++)
Substance: 255 (VLASYNLTV; listed as Homo sapiens) [compound 255]

Peptide exchange (MHC class I binding score, peptide exchange yield) (HLA-A*02:01): “+++” (>50 = +++)
Substance: 478 (YLLHEKLNL; listed as Homo sapiens) [compound 478]

Peptide exchange (MHC class I binding score, peptide exchange yield) (HLA-A*02:01): “+++” (>50 = +++)
Substance: 537 (TLAPGEVLRSV; listed as Homo sapiens) [compound 537]

Peptide exchange (MHC class I binding score, peptide exchange yield) (HLA-A*02:01): “+” (>10% = +)
Substance: 520 (LAVHPSGVAL; listed as Homo sapiens) [compound 520]

Peptide exchange (MHC class I binding score, peptide exchange yield) (HLA-A*02:01): “+++” (>50 = +++)
Substance: 401 (ILLDDTGLAYI; listed as Homo sapiens) [compound 401]

Peptide exchange (MHC class I binding score, peptide exchange yield) (HLA-A*02:01): “+++” (>50 = +++)
Substance: 433 (AMLNEPWAV; listed as Homo sapiens) [compound 433]

Peptide exchange (MHC class I binding score, peptide exchange yield) (HLA-A*02:01): “++” (>20% = ++)
Substance: 459 (ALITEVVRL; listed as Homo sapiens) [compound 459]

Peptide exchange (MHC class I binding score, peptide exchange yield) (HLA-A*02:01): “++++” (>75% = ++++)
Substance: 337 (HLLSELEAAPYL; listed as Homo sapiens) [compound 337]

Peptide exchange (MHC class I binding score, peptide exchange yield) (HLA-A*02:01): “+++” (>50 = +++)
Substance: 297 (VLADIELAQA; listed as Homo sapiens) [compound 297]
